Source: PMC5105069, “Structural assemblies of the di- and oligomeric G-protein coupled receptor TGR5 in live cells: an MFIS-FRET and integrative modelling study” (Scientific Reports, 2016)

T1: TGR5 wt fused to GFP or mCherry (TGR5 wt-GFP and TGR5 wt-mCherry), Q8TDU6
T1 chain: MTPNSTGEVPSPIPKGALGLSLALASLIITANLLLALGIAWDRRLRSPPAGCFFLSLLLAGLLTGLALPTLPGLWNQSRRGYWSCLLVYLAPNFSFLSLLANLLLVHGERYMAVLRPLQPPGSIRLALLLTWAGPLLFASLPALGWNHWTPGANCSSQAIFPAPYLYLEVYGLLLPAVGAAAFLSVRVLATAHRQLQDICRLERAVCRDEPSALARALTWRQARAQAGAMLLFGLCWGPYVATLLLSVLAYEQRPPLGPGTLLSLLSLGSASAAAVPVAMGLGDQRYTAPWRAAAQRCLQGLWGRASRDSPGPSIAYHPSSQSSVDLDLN


What was measured:
[1] = target: T1, TGR5 wt fused to GFP or mCherry (TGR5 …); assay: FRET or BRET; MFIS-FRET in live HEK293 cells; GFP (donor) and mCherry (acceptor) on the C-terminus of TGR5; acceptor titration up to donor:acceptor 1:40; total TGR5 0.5-13 uM; also before and after 10 uM taurocholate (no change); KD2 is of the step tetramer to dimers, modelled by a dimer/tetramer simulation of E_mean against the donor-acceptor ratio with KD1 of the dimer fixed to 10 nM; conditions: remark: other sources report otherwise
[2] = target: the molecule itself; assay: as above

KD2 (tetramer to dimers, modeled) [1] [nM] | stoichiometry N [1] | Binder | stoichiometry N [2]
70 | 4 | TGR5 wt fused to GFP or mCherry (TGR5 wt-GFP and TGR5 wt-mCherry), Q8TDU6 1-330 (receptor) MTPNSTGEVPSPIPKGALGLSLALASLIITANLLLALGIAWDRRLRSPPAGCFFLSLLLAGLLTGLALPTLPGLWNQSRRGYWSCLLVYLAPNFSFLSLLANLLLVHGERYMAVLRPLQPPGSIRLALLLTWAGPLLFASLPALGWNHWTPGANCSSQAIFPAPYLYLEVYGLLLPAVGAAAFLSVRVLATAHRQLQDICRLERAVCRDEPSALARALTWRQARAQAGAMLLFGLCWGPYVATLLLSVLAYEQRPPLGPGTLLSLLSLGSASAAAVPVAMGLGDQRYTAPWRAAAQRCLQGLWGRASRDSPGPSIAYHPSSQSSVDLDLN | 
 |  | TGR5 Y111F fused to GFP or mCherry (receptor, UniProt Q8TDU6 1-330, looked up, TGR5 (GPBAR-1, M-BAR) with Y111F in the ERY motif; Two differently tagged copies (GFP donor, mCherry acceptor), co-expressed; Each copy carries only one fluorescent protein; also called Y111F variant; source: HEK293, transiently transfected, in live cells; not shown: GFP, C-terminal, kept; mCherry, C-terminal, kept) MTPNSTGEVPSPIPKGALGLSLALASLIITANLLLALGIAWDRRLRSPPAGCFFLSLLLAGLLTGLALPTLPGLWNQSRRGYWSCLLVYLAPNFSFLSLLANLLLVHGERFMAVLRPLQPPGSIRLALLLTWAGPLLFASLPALGWNHWTPGANCSSQAIFPAPYLYLEVYGLLLPAVGAAAFLSVRVLATAHRQLQDICRLERAVCRDEPSALARALTWRQARAQAGAMLLFGLCWGPYVATLLLSVLAYEQRPPLGPGTLLSLLSLGSASAAAVPVAMGLGDQRYTAPWRAAAQRCLQGLWGRASRDSPGPSIAYHPSSQSSVDLDLN | 4
 |  | TGR5 Y111A fused to GFP or mCherry (receptor, UniProt Q8TDU6 1-330, looked up, TGR5 (GPBAR-1, M-BAR) with Y111A in the ERY motif; Two differently tagged copies (GFP donor, mCherry acceptor), co-expressed; Each copy carries only one fluorescent protein; also called Y111A variant; source: HEK293, transiently transfected, in live cells; not shown: GFP, C-terminal, kept; mCherry, C-terminal, kept) MTPNSTGEVPSPIPKGALGLSLALASLIITANLLLALGIAWDRRLRSPPAGCFFLSLLLAGLLTGLALPTLPGLWNQSRRGYWSCLLVYLAPNFSFLSLLANLLLVHGERAMAVLRPLQPPGSIRLALLLTWAGPLLFASLPALGWNHWTPGANCSSQAIFPAPYLYLEVYGLLLPAVGAAAFLSVRVLATAHRQLQDICRLERAVCRDEPSALARALTWRQARAQAGAMLLFGLCWGPYVATLLLSVLAYEQRPPLGPGTLLSLLSLGSASAAAVPVAMGLGDQRYTAPWRAAAQRCLQGLWGRASRDSPGPSIAYHPSSQSSVDLDLN | 2
